Results as given in paper PMC7666139 (Communications Biology, 2020).
Non-standard residues stand in square brackets, D forms with d. No end group written: not given here. pY = N[C@@H](Cc1ccc(OP(=O)(O)O)cc1)C(=O)O

Experiments:
Details in all cases: both partners purified
[1] = biological target: T1, 6xHis-tagged HACS1 SH3 domain (human, UniProt Q9NSI8 163-224); test: SPR; biotinylated phosphopeptide on a streptavidin gold sensor chip (OpenSPR); analyte 20 µM to 0.1 µM in 10 mM Tris-HCl, 100 mM NaCl, pH 7.4, 0.1% bovine serum albumin, 0.005% Tween-20, 0.05% NaN3; 40 µL/min; 1:1 interaction model
T1 construct: human HACS1 SH3 domain, codon-optimized synthetic gene; Gene synthesized, in a pD441NH expression vector (ATUM); 15N-labelled in the NMR experiments; Minimal folded SH3 domain is 168-222 by the NMR structure; also called HACS SH3 domain; 6xHis-tagged SH3 domain; source: E. coli, purified (Nickel-NTA, gel filtration)

[2] = biological target: T2, 6xHis/Flag-tagged human SHP2 N-SH2 domain (human, UniProt Q06124 1-107); test: as above
T2 construct: human SHP2 phosphatase, N-SH2 domain, aa; 1-107; Gene synthesized; also called SHP2 SH2-N; SHP2 SH2(N) domain; source: E. coli, purified (Nickel-NTA, gel filtration)
T2 sequence (looked up): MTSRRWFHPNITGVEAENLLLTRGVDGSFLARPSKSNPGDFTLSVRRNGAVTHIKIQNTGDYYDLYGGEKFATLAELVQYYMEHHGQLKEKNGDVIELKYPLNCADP

[3] = biological target: T1, 6xHis-tagged HACS1 SH3 domain; test: ITC; 600 µM PIRB-GB1 in the syringe, 37 µM 6xHis-tagged HACS1 SH3 domain in the cell; 10 mM Tris, 50 mM NaCl, 1 mM TCEP, 0.05 NaN3, pH 7.5; single-site binding model

T1 sequence (Q9NSI8 163-224): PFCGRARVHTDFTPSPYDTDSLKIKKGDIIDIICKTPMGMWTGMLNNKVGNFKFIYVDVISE

B1: biotinylated murine PIRB derived phosphopeptide (peptide)
peptide: GGQDVT[pY]AQLCSRTLRQGAAAS
modifications: also: biotin (position not given here)
notes: The leading GG may be a spacer and not part of PIRB; also called murine PIRB phospho-ITIM3 peptide; source: synthetic peptide (Genscript)
Work on B1 yielded a Kd [1] of 15.9 µM.

GGQDVT[pY]AQLHSLTRLREATE (also: biotin (position not given here)) [biotinylated human PIRB derived phosphopeptide] showed a Kd [1] of 8.7 µM, a koff [1] of 0.017 s⁻¹ and a kon [1] of 1900 M⁻¹ s⁻¹. The Kd [2] was 6.7 µM, the koff [2] was 0.026 s⁻¹ and the kon [2] was 3800 M⁻¹ s⁻¹.

B2: murine PIRB-GB1 fusion protein (peptide, UniProt P97484 797-809, looked up)
chain: LCSRTLRQGAAAS
notes: 797-809; Methods: PIRB fragment and GB1 separated by a random 13 amino acid linker; Not phosphorylated; also called PIRB-GB1 hybrid protein; Protein GB1-tagged PIRB; source: E. coli, purified (Nickel-NTA, gel filtration); not shown: Protein G B1 domain (GB1), C-terminal, kept
With B2 the Kd [3] was 15.9 µM and the “stoichiometry N” value [3] was 1.
